test: soluble on expression in E. coli; label from the status in PepcDB or PDB records

| Sequence | soluble on expression in E. coli |
| --- | --- |
| MCGIFAYLNFLTPKKRSEIVDILVQGLQRMEYRGYDSAGIAIDGSNEIESPHSSVALLRKAGKVSVLSDFIKESSSDLDMDMEYNIHCGIAHTRWATHGSPRDVNSHPHRSNDKNEFLVVHNGIITNYREIKEYLEKKGHKFESETDTEVIAKLAQHIHDRYPDFSFRQLVETVIQQLEGAFALAFKSSRFPGQLVASRRGSPLLVGIKSNSRLQTNHFPVSFSKDAGWKWGDEKQTDGRRFMSNHATHLRDETSFVETPNNILDLSIAVRSSNGSAKMEISDSTTAVRPFDSDDWEVEYFVASDAAAIIEHTKQVLFLEDDDVAFVEDGALTIHRISRHADNGEQKREVKLLEMELQEIMKGSFKTYMQKEIFEQPDSVVNTMRGRVLPSGQVVLGGIKEYLPDIKRCRRLIMVACGTSYHSAIACRQILEELSELPVVVELASDFLDRETPIFRDDVCLFISQSGETADTLLALRYCKPRGALTIGVTNTVGSSICRESHCGIHINAGPEIGVASTKAYTSQILSLLMFALTLSDDRISMAKRREEIIDALNDLPELIREVLQLDEKVLDIAKQIYKEKSLLIMGRGLNFATCLEGALKIKELSYMHCEGIMSGELKHGPLAMVDEFLSICMVVCNDRVYKKSLNALQQVVARKGAPIIIADCTVPEGDLAGMKHILRVPKTVDCVQNILTVIPLQLLSYHIAELNGANVDRPRNLAKSVTVE | not soluble |
| MSLAEITDRDTALFESGIKLGALYHQFVGSPVNLSTAGSLEAAIRDSISLQPCVQSITVAIDREMVRGRINDFGYCELEGRMLGVEAVIRYGTAVVHVGMRYDAEMDYPMMSVQQIEQIGQIRQIEQDKQTEQIRQIRQTEVGEGHHHHHH | soluble |
| MKEKIALITGVTGQDGSYLAEYLLNLGYEVHGLKRRSSSINTSRIDHLYEDLHSDHKRRFFLHYGDMTDSSNLIHLIATTKPTEIYNLAAQSHVKVSFETPEYTANADGIGTLRILEAMRILGLEKKTRFYQASTSELYGEVLETPQNENTPFNPRSPYAVAKMYAFYITKNYREAYNLFAVNGILFNHESRVRGETFVTRKITRAASAIAYNLTDCLYLGNLDAKRDWGHAKDYVKMMHLMLQAPIPQDYVIATGKTTSVRDFVKMSFEFIGINLEFQNTGIKEIGLIKSVDEKRANALKLNLSHLKKGQIVVRIDERYFRPTEVDLLLGDPTKAEKELDWVREYDLKELVKDMLEYDLKECQKNLYLQDGGYILRNFYE | soluble |
| MSEKVVFSQLSRKFIDENDATPAEAQQVVYYSLAIGHHLGVIDCLEAALTCPWDEYLAWIATLEAGSEARRKMEGVPKYGEIVIDINHVPMLANAFDKARAAQTSQQKEWSTMLLSMLHDIHQENAIYLMVRRLRD | not soluble |
| MSLAPAEWVALNYVPFAERSLEVVVDLYQKTACHKAVVNEKVLQNIIKTLRVPLSLKYSCPSESTWKLAVSSLLRVLSIGLPVARQHASSGKFDSMWPELANTFEDFLFTKSIPPDNLSIQEFQRNENIDVEVVQLISNEILPYANFIPKEFVGQIMTMLNKGSIHSQSSSFTEAEIDIRLREEFSKMCFETLLQFSFSNKVTTPQEGYISRMALSVLLKRSQDVLHRYIEDERLSGKCPLPRQQVTEIIFVLKAVSTLIDSLKKTQPENVDGNTWAQVIALYPTLVECITCSSSEVCSALKEALVPFKDFMQPPASRVQNGEEGHHHHHH | not soluble |
| MTRHALAYVAGAYEHPLRHAPDKSVAQLHAESARGALDDAGLSFADVDGYFCAGDAGLGPAYMVDYLNLTPRHVDGTEIGGGSYLAQIGHAAHAIAAGKCSVALITLAGRPRSEGQATGTEPRIPGPDRPSAPWDSAYRWTIGTIYGNFARRHMHEYGTTSEQLAWVKVAASHHAQHNPNALLRKVYTVDDVLGSPMVADPLHRLDCCVITDGGGALVIVAPEVARSLNRPRIKVV | not soluble |
| MATSNLLKNKGSLQFEDKWDFMHPIVLKLLRQESVTKQQWFDLFSDVHAVCLWDDKGSSKIHQALKEDILEFIKQAQARVLSHQDDTALLKAYIVEWRKFFTQCDILPKPFCQLEVTLLGKQSSNKKSNMEDSIVRKLMLDTWNESIFSNIKNRLQDSAMKLVHAERLGEAFDSQLVIGVRESYVNLCSNPEDKLQIYRDNFEKAYLDSTERFYRTQAPSYLQQNGVQNYMKYADAKLKEEEKRALRYLETRRECNSVEALMECCVNALVTSFKETILAECQGMIKRNETEKLHLMFSLMDKVPNGIEPMLKDLEEHIISAGLADMVAAAETITTDSEKYREQLDTLFNRFSKLVKEAFQDDPRFLTARDKAYKAVVNDATIFKAENLYFQ | soluble |
| SIPAGITAAYIHKGHDTTHGGGEMVLEVPHDKTIPVLRFLRDHSSCLYDCFIDCTAADFPQKPQRFRVVYNLLSLKYSSRIRVQTHVDEVTPIESATCLFKGANWPEREVWDLFGVFFYNHPDLRRILTDYGFEGHPLRKDFPLSGYVEVRYDDTEKRVVIEPVEITQEYRAFDYTSPWEVFPEGGNFEEAEKLPERV | soluble |
| MQIFLLGLDNTTHTLDVDASTTLSAIKGVIGAGEEFSISYGSKVLSEELTLGECQIESLSTLSVNGRLLGGKVHGSLARAGKVRAQTPKVDKQDKKKKKRGRAFRRVQYTRRYVNVASGPGKKRGPNSNS | not soluble |
| MITLTGHTLTIEEMKRLLLEGEGVTACPTSMQKVAECREVVEKIVENGKVVYGITTGFGKFSDVLIQKDDVKALQHNLIQSHACGIGDPFPEEVSRGMLILRANTMLKGVSGVRPLVVNMLLEFVNRKIHPVVPQQGSLGASGDLAPLSHLALILLGEGEVFYKGKRVHAMVALTEEGLEPIELEAKEGLALINGTQAMTAQGVLSYIEAEATAYQAELIASMTIEGLQGIIDAFDENVHKARGYKEQVEVASRIRDILHDSKLTTKQGELRVQDAYSLRCIPQVHGASWQVLNYVKEKLEIEMNAATDNPLIFDGGEKVISGGNFHGQPIAFAMDFLKVGMAELANISERRIERLVNPQLNDLPPFLSPEPGLQSGAMIMQYAAASLVSENKTLAHPASVDSIPSSANQEDHVSMGTIASRHAHQIIQNVRRVLSIEMICAMQAAEYRGIENMSTVTKSFYHQGRQQVPSITNDRIFSTDIENITHWLKTNYSIKERLDVNAAL | not soluble |
| MKDIIIASFYKFIPLNDFESLREPILTKMHEIGIKGTIILAHEGVNGGFAGNREQMNVFYDYLRSDSRFADLHFKETYDNKNPFDKAKVKLRKEIVTMGVQKVDPSYNAGTYLSPEEWHQFIQDPNVILLDTRNDYEYELGTFKNAINPDIENFREFPDYVQRNLIDKKDKKIAMFCTGGIRCEKTTAYMKELGFEHVYQLHDGILNYLESIPESESLWEGKCFVFDDRVAVDQKLDRVYPQLPQDYKYEREQK | not soluble |
| MEQQLTIEMIADAFSYDITGFDCGEEALNTFLKEHLKRQHDGQILRGYALVSGDTVPRLLGYYTLSGSCFERGMLPSKTQQKKIPYQNAPSVTLGRLAIDKSVQGQGWGEMLVAHVMRVVWGASKAVGIYGLFVEALNEKAKAFYLRLGFIQLVDENSNLLFYPTKSIEQLFTDDES | not soluble |
| MGHHHHHHSHCSSCSTPLYDQGGPVEILPFLYLGSAYHASRKDMLDALGITALINVSANCPNHFEGHYQYKSIPVEDNHKADISSWFNEAIDFIDSIKNAGGRVFVHCQAGISRSATICLAYLMRTNRVKLDEAFEFVKQRRSIISPNFSFMGQLLQFESQVLAPHCSAEAGSPAMAVLDRGTSTTTVFNFPVSIPVHSTNSALSYLQSPITTSPSC | not soluble |
| MKLKYSGLTASGNTHPKFTRGDIYRDQYGGMVTIKGVAERRITYRREGYEYDCVMPVYQFRRDFTLVQAAPRSKPTSREKARANIQEIKKMLNVFRGKK | not soluble |
| DERLELMESVDVGQTPSNVVYEENKLELLHYDAEAAGIEVPDEEKEDVPILIVYALINRPYILDLQEERSVVRRLLEAGHDVYLIDWNEPSRLDQHLTLDDYVNRYMDNCVDVVRDRSGQDAINILGYCMGGTMSVMYTALHKEKVNTLGLMAAGLCFDHTGGVLEEWGSEEYYSPQDVVDTFGNVPADMLDIGFALMDPVENYVTKYIRFAENMENEGFVENFGRMEQWLGDGIDVAGEAYVQFLEDVYQDNKLYKNELELDGKHVDLDNIDMPVLQLMGEYDHLIPPEASKPFNDVIASDDTRTIEFSTGHIGLSVSSSTHADLWPEVAEWYSER | not soluble |
| MTTIVPTSEENPFLAVVRFTSQLAWADAGPEAAEPEITRLCREAEESMVAEKWLELSSLMVTSAELVSSKISEKDLECTYTIICSIVKNAKSPEQVLEMVKAIASKVAQQPSDKASLRLKILFNLYNLVDHPYARFQVYMKALTLAVDGKVTEYIVSSFKKIDNFLKEWNIDIKDQRELFLAIANVLKENKSLVNESLKFLTKYLATFSNEDAQVLDEAKEEAVRAVIEFVKASSIFQCDLLDLPAVAQLEKDAKYAPVYQLLKIFLTQRLNAYTEFQNANSGFLQSYGLSNEDCVTKMRLLSLVDLASDESGKIPYTSIKDTLQVNEQDVELWIVKAITAKLIESALPNVNLGQSNGNLSEQSLRLGSIITTIESNKVTEEGSQASSSSAAAIQGLSVR | soluble |
| MSRTWIRNPLAIFTANGLDAAGGLVVEDGRIVELLGAGQQPAQPCASQFDASRHVVLPGLVNTHHHFYQTLTRAWAPVVNQPLFPWLKTLYPVWARLTPEKLELATKVALAELLLSGCTTAADHHYLFPGGLEQAIDVQAGVVEELGMRAMLTRGSMSLGEKDGGLPPQQTVQEAETILADSERLIARYHQRGDGARVQIALAPCSPFSVTPEIMRASAEVAARHDVRLHTHLAETLDEEDFCLQRFGLRTVDYLDSVGWLGPRTWLAHGIHFNAEEIRRLGEAGTGICHCPSSNMRLASGICPTVELEAAGAPIGLGVDGSASNDASNMILEARQALYLQRLRYGAERITPELALGWATRGSARLLGRSDIGELAPGKQADLALFKLDELRFSGSHDPLSALLLCAADRADRVMVGGAWRVVDGAVEGLDLAALIARHRAAASALIAG | not soluble |
| MGSDKIHHHHHHMRHELDNPHAHATNNPCIRCLRHADRYARAVVSMLEVFASDKAEAKHNLFLKEGLCDIDKTLRSNDKRDTLRERPRNQTSSAMTLSPEKRARVMQGEILIDLNWLPDGVIGAKGSVFVEAEPPVVWRMLTDYDHLHETMPKVISSRLLETNNQTRIIAQSGKSGIFIFEKTVNFTLKVEEVFPEHLWFSQIGGDFQVYEGEWQLEAVEGKNGHATLLSYQAEIKPDFFAPQFVVSFVQSQDLPTILRAIRSYCEARAKG | not soluble |
| MKNFLLLTLILLTACNNSEENTQSIIKNDINKTIIDEEYVNLEPINQSNISFTKHSWVQTCGTQQLLTEQNKESISLSVVAPRLDDDEKYCFDFNGVSNKGEKYITKVTLNVVAPSLEVYVDHASLPTLQQLMDIIKSEEENPTAQRYIAWGRIVPTDEQMKELNITSFALINNHTPADLVQEIVKQAQTKHRLNVKLSSNTAHSFDNLVPILKELNSFNNVTVTNIDLYDDGSAEYVNLYNWRDTLNKTDNLKIGKDYLEDVINGINEDTSNTGTSSVYNWQKLYPANYHFLRKDYLTLEPSLHELRDYIGDSLKQMQWDGFKKFNSKQQELFLSIVNFDKQKLQNEYNSSNLPNFVFTGTTVWAGNHEREYYAKQQINVINNAINESSPHYLGNSYDLFFKGHPGGGIINTLIMQNYPSMVDIPSKISFEVLMMTDMLPDAVAGIASSLYFTIPAEKIKFIVFTSTETITDRETALRSPLVQVMIKLGIVKEENVLFWADLPNCETGVCIAV | soluble |
| MPVLHNRISNDALKAKMLAESEPRTTISFYKYFHIADPKATRDALYQLFTALNVFGRVYLAHEGINAQISVPASNVETFRAQLYAFDPALEGLRLNIALDDDGKSFWVLRMKVRDRIVADGIDDPHFDASNVGEYLQAAEVNAMLDDPDALFIDMRNHYEYEVGHFENALEIPADTFREQLPKAVEMMQAHKDKKIVMYCTGGIRCEKASAWMKHNGFNKVWHIEGGIIEYARKAREQGLPVRFIGKNFVFDERMGERISDEIIAHCHQCGAPCDSHTNCKNDGCHLLFIQCPVCAEKYKGCCSEICCEESALPPEEQRRRRAGRENGNKIFNKSRGRLNTTLGIPDPTE | not soluble |

Reference: the DeepSol protein solubility set
